In patent publication US20240270846A1 (published 2024):

Molecular target: T1, CD3 epsilon homodimer protein (UniProt P07766 23-126)
T1 construct: also called CD3 (CD3 epsilon)
Assay: SPR (Biacore T200), CD3e homodimer on CM4 chip, antibody as analyte; KD ratio vs unaltered GLS3000;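 further: CD3 epsilon homodimer amine-coupled to the sensor surface, antibodies injected as analyte at 25 °C with HBS-EP+ running buffer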

T1 sequence (P07766 23-126): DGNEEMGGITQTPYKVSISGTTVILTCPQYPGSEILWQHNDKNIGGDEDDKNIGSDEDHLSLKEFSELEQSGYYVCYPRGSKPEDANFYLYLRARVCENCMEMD

Row | Binder | KD ratio to GLS3000 [ratio]
1 | CE115HA000/GLS3000 S56W one-arm antibody (antibody, human IgG1, kappa, L234A L235A, N297A, name in Kabat numbering, one-arm IgG1) heavy: QVQLVESGGGVVQPGRSLRLSCAASGFTFSNAWMHWVRQAPGKGLEWVAQIKAKSNNYATYYAESVKGRFTISRDDSKNSLYLQMNSLKTEDTAVYYCRYVHYGAYYGVDAWGQGTTVTVSSASTKGPSVFPLAPSSKSTSGGTAALGCLVKDYFPEPVTVSWNSGALTSGVHTFPAVLQSSGLYSLSSVVTVPSSSLGTQTYICNVNHKPSNTKVDKKVEPKSCDKTHTCPPCPAPEAAGGPSVFLFPPKPKDTLMISRTPEVTCVVVDVSHEDPEVKFNWYVDGVEVHNAKTKPREEQYASTYRVVSVLTVLHQDWLNGKEYKCKVSNKALPAPIEKTISKAKGQPREPQVYTLPPSRCELTKNQVSLSCAVKGFYPSDIAVEWESNGQPENNYKTTPPVLDSDGSFFLVSKLTVDKSRWQQGNVFSCSVMHEALHNHYTQKSLSLSPDYKDDDDK EPKSSDKTHTCPPCPAPELLGGPSVFLFPPKPKDTLMISRTPEVTCVVVDVSHEDPEVKFNWYVDGVEVHNAKTKPREEQYNSTYRVVSVLTVLHQDWLNGKEYKCKVSNKALPAPIEKTISKAKGQPREPQVCTLPPSRDELTKNQVSLWCLVKGFYPSDIAVEWESNGQPENNYKTTPPVLDSDGSFFLYSKLTVDKSRWQQGNVFSCSVMHEALHNRYTQKSLSLSP light: DIVMTQSPLSLPVTPGEPASISCRSSQSLVHSNRNTYLHWYQQKPGQAPRLLIYKVSNRFWGVPDRFSGSGSGTDFTLKISRVEAEDVGVYYCGQGTQVPYTFGQGTKLEIKRTVAAPSVFIFPPSDEQLKSGTASVVCLLNNFYPREAKVQWKVDNALQSGNSQESVTEQDSKDSTYSLSSTLTLSKADYEKHKVYACEVTHQGLSSPVTKSFNRGEC | 1.12
2 | CE115HA000/GLS3000 T31E one-arm antibody (antibody, human IgG1, kappa, L234A L235A, N297A, name in Kabat numbering, one-arm IgG1) heavy: QVQLVESGGGVVQPGRSLRLSCAASGFTFSNAWMHWVRQAPGKGLEWVAQIKAKSNNYATYYAESVKGRFTISRDDSKNSLYLQMNSLKTEDTAVYYCRYVHYGAYYGVDAWGQGTTVTVSSASTKGPSVFPLAPSSKSTSGGTAALGCLVKDYFPEPVTVSWNSGALTSGVHTFPAVLQSSGLYSLSSVVTVPSSSLGTQTYICNVNHKPSNTKVDKKVEPKSCDKTHTCPPCPAPEAAGGPSVFLFPPKPKDTLMISRTPEVTCVVVDVSHEDPEVKFNWYVDGVEVHNAKTKPREEQYASTYRVVSVLTVLHQDWLNGKEYKCKVSNKALPAPIEKTISKAKGQPREPQVYTLPPSRCELTKNQVSLSCAVKGFYPSDIAVEWESNGQPENNYKTTPPVLDSDGSFFLVSKLTVDKSRWQQGNVFSCSVMHEALHNHYTQKSLSLSPDYKDDDDK EPKSSDKTHTCPPCPAPELLGGPSVFLFPPKPKDTLMISRTPEVTCVVVDVSHEDPEVKFNWYVDGVEVHNAKTKPREEQYNSTYRVVSVLTVLHQDWLNGKEYKCKVSNKALPAPIEKTISKAKGQPREPQVCTLPPSRDELTKNQVSLWCLVKGFYPSDIAVEWESNGQPENNYKTTPPVLDSDGSFFLYSKLTVDKSRWQQGNVFSCSVMHEALHNRYTQKSLSLSP light: DIVMTQSPLSLPVTPGEPASISCRSSQSLVHSNRNEYLHWYQQKPGQAPRLLIYKVSNRFSGVPDRFSGSGSGTDFTLKISRVEAEDVGVYYCGQGTQVPYTFGQGTKLEIKRTVAAPSVFIFPPSDEQLKSGTASVVCLLNNFYPREAKVQWKVDNALQSGNSQESVTEQDSKDSTYSLSSTLTLSKADYEKHKVYACEVTHQGLSSPVTKSFNRGEC | 1.59
3 | CE115HA000/GLS3000 S56Y one-arm antibody (antibody, human IgG1, kappa, L234A L235A, N297A, name in Kabat numbering, one-arm IgG1) heavy: QVQLVESGGGVVQPGRSLRLSCAASGFTFSNAWMHWVRQAPGKGLEWVAQIKAKSNNYATYYAESVKGRFTISRDDSKNSLYLQMNSLKTEDTAVYYCRYVHYGAYYGVDAWGQGTTVTVSSASTKGPSVFPLAPSSKSTSGGTAALGCLVKDYFPEPVTVSWNSGALTSGVHTFPAVLQSSGLYSLSSVVTVPSSSLGTQTYICNVNHKPSNTKVDKKVEPKSCDKTHTCPPCPAPEAAGGPSVFLFPPKPKDTLMISRTPEVTCVVVDVSHEDPEVKFNWYVDGVEVHNAKTKPREEQYASTYRVVSVLTVLHQDWLNGKEYKCKVSNKALPAPIEKTISKAKGQPREPQVYTLPPSRCELTKNQVSLSCAVKGFYPSDIAVEWESNGQPENNYKTTPPVLDSDGSFFLVSKLTVDKSRWQQGNVFSCSVMHEALHNHYTQKSLSLSPDYKDDDDK EPKSSDKTHTCPPCPAPELLGGPSVFLFPPKPKDTLMISRTPEVTCVVVDVSHEDPEVKFNWYVDGVEVHNAKTKPREEQYNSTYRVVSVLTVLHQDWLNGKEYKCKVSNKALPAPIEKTISKAKGQPREPQVCTLPPSRDELTKNQVSLWCLVKGFYPSDIAVEWESNGQPENNYKTTPPVLDSDGSFFLYSKLTVDKSRWQQGNVFSCSVMHEALHNRYTQKSLSLSP light: DIVMTQSPLSLPVTPGEPASISCRSSQSLVHSNRNTYLHWYQQKPGQAPRLLIYKVSNRFYGVPDRFSGSGSGTDFTLKISRVEAEDVGVYYCGQGTQVPYTFGQGTKLEIKRTVAAPSVFIFPPSDEQLKSGTASVVCLLNNFYPREAKVQWKVDNALQSGNSQESVTEQDSKDSTYSLSSTLTLSKADYEKHKVYACEVTHQGLSSPVTKSFNRGEC | 1.1
4 | CE115HA000/GLS3000 T31K one-arm antibody (antibody, human IgG1, kappa, L234A L235A, N297A, name in Kabat numbering, one-arm IgG1) heavy: QVQLVESGGGVVQPGRSLRLSCAASGFTFSNAWMHWVRQAPGKGLEWVAQIKAKSNNYATYYAESVKGRFTISRDDSKNSLYLQMNSLKTEDTAVYYCRYVHYGAYYGVDAWGQGTTVTVSSASTKGPSVFPLAPSSKSTSGGTAALGCLVKDYFPEPVTVSWNSGALTSGVHTFPAVLQSSGLYSLSSVVTVPSSSLGTQTYICNVNHKPSNTKVDKKVEPKSCDKTHTCPPCPAPEAAGGPSVFLFPPKPKDTLMISRTPEVTCVVVDVSHEDPEVKFNWYVDGVEVHNAKTKPREEQYASTYRVVSVLTVLHQDWLNGKEYKCKVSNKALPAPIEKTISKAKGQPREPQVYTLPPSRCELTKNQVSLSCAVKGFYPSDIAVEWESNGQPENNYKTTPPVLDSDGSFFLVSKLTVDKSRWQQGNVFSCSVMHEALHNHYTQKSLSLSPDYKDDDDK EPKSSDKTHTCPPCPAPELLGGPSVFLFPPKPKDTLMISRTPEVTCVVVDVSHEDPEVKFNWYVDGVEVHNAKTKPREEQYNSTYRVVSVLTVLHQDWLNGKEYKCKVSNKALPAPIEKTISKAKGQPREPQVCTLPPSRDELTKNQVSLWCLVKGFYPSDIAVEWESNGQPENNYKTTPPVLDSDGSFFLYSKLTVDKSRWQQGNVFSCSVMHEALHNRYTQKSLSLSP light: DIVMTQSPLSLPVTPGEPASISCRSSQSLVHSNRNKYLHWYQQKPGQAPRLLIYKVSNRFSGVPDRFSGSGSGTDFTLKISRVEAEDVGVYYCGQGTQVPYTFGQGTKLEIKRTVAAPSVFIFPPSDEQLKSGTASVVCLLNNFYPREAKVQWKVDNALQSGNSQESVTEQDSKDSTYSLSSTLTLSKADYEKHKVYACEVTHQGLSSPVTKSFNRGEC | 0.88

More lines, now with the values ahead:

Row | KD ratio to GLS3000 [ratio] | Binder
5 | 30.9 | CE115HA000/GLS3000 T31D one-arm antibody (antibody, human IgG1, kappa, L234A L235A, N297A, name in Kabat numbering, one-arm IgG1) heavy: QVQLVESGGGVVQPGRSLRLSCAASGFTFSNAWMHWVRQAPGKGLEWVAQIKAKSNNYATYYAESVKGRFTISRDDSKNSLYLQMNSLKTEDTAVYYCRYVHYGAYYGVDAWGQGTTVTVSSASTKGPSVFPLAPSSKSTSGGTAALGCLVKDYFPEPVTVSWNSGALTSGVHTFPAVLQSSGLYSLSSVVTVPSSSLGTQTYICNVNHKPSNTKVDKKVEPKSCDKTHTCPPCPAPEAAGGPSVFLFPPKPKDTLMISRTPEVTCVVVDVSHEDPEVKFNWYVDGVEVHNAKTKPREEQYASTYRVVSVLTVLHQDWLNGKEYKCKVSNKALPAPIEKTISKAKGQPREPQVYTLPPSRCELTKNQVSLSCAVKGFYPSDIAVEWESNGQPENNYKTTPPVLDSDGSFFLVSKLTVDKSRWQQGNVFSCSVMHEALHNHYTQKSLSLSPDYKDDDDK EPKSSDKTHTCPPCPAPELLGGPSVFLFPPKPKDTLMISRTPEVTCVVVDVSHEDPEVKFNWYVDGVEVHNAKTKPREEQYNSTYRVVSVLTVLHQDWLNGKEYKCKVSNKALPAPIEKTISKAKGQPREPQVCTLPPSRDELTKNQVSLWCLVKGFYPSDIAVEWESNGQPENNYKTTPPVLDSDGSFFLYSKLTVDKSRWQQGNVFSCSVMHEALHNRYTQKSLSLSP light: DIVMTQSPLSLPVTPGEPASISCRSSQSLVHSNRNDYLHWYQQKPGQAPRLLIYKVSNRFSGVPDRFSGSGSGTDFTLKISRVEAEDVGVYYCGQGTQVPYTFGQGTKLEIKRTVAAPSVFIFPPSDEQLKSGTASVVCLLNNFYPREAKVQWKVDNALQSGNSQESVTEQDSKDSTYSLSSTLTLSKADYEKHKVYACEVTHQGLSSPVTKSFNRGEC
6 | 1.1 | CE115HA000/GLS3000 T31I one-arm antibody (antibody, human IgG1, kappa, L234A L235A, N297A, name in Kabat numbering, one-arm IgG1) heavy: QVQLVESGGGVVQPGRSLRLSCAASGFTFSNAWMHWVRQAPGKGLEWVAQIKAKSNNYATYYAESVKGRFTISRDDSKNSLYLQMNSLKTEDTAVYYCRYVHYGAYYGVDAWGQGTTVTVSSASTKGPSVFPLAPSSKSTSGGTAALGCLVKDYFPEPVTVSWNSGALTSGVHTFPAVLQSSGLYSLSSVVTVPSSSLGTQTYICNVNHKPSNTKVDKKVEPKSCDKTHTCPPCPAPEAAGGPSVFLFPPKPKDTLMISRTPEVTCVVVDVSHEDPEVKFNWYVDGVEVHNAKTKPREEQYASTYRVVSVLTVLHQDWLNGKEYKCKVSNKALPAPIEKTISKAKGQPREPQVYTLPPSRCELTKNQVSLSCAVKGFYPSDIAVEWESNGQPENNYKTTPPVLDSDGSFFLVSKLTVDKSRWQQGNVFSCSVMHEALHNHYTQKSLSLSPDYKDDDDK EPKSSDKTHTCPPCPAPELLGGPSVFLFPPKPKDTLMISRTPEVTCVVVDVSHEDPEVKFNWYVDGVEVHNAKTKPREEQYNSTYRVVSVLTVLHQDWLNGKEYKCKVSNKALPAPIEKTISKAKGQPREPQVCTLPPSRDELTKNQVSLWCLVKGFYPSDIAVEWESNGQPENNYKTTPPVLDSDGSFFLYSKLTVDKSRWQQGNVFSCSVMHEALHNRYTQKSLSLSP light: DIVMTQSPLSLPVTPGEPASISCRSSQSLVHSNRNIYLHWYQQKPGQAPRLLIYKVSNRFSGVPDRFSGSGSGTDFTLKISRVEAEDVGVYYCGQGTQVPYTFGQGTKLEIKRTVAAPSVFIFPPSDEQLKSGTASVVCLLNNFYPREAKVQWKVDNALQSGNSQESVTEQDSKDSTYSLSSTLTLSKADYEKHKVYACEVTHQGLSSPVTKSFNRGEC
